Consider one molecule from patent publication KR20230086338A (dated 2023).

In this assay the target is T1, 재조합 인간 MUC1-C 항원 (MUC1-C ECD) (human, UniProt P15941 1098-1158).
T1 construct: also called 재조합 MUC1-C 단백질; 재조합 hMUC1-항원
T1 sequence: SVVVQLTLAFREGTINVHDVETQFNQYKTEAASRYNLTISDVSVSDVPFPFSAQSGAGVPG
Kind of assay: BLI (Octet RED 96); MUC1-C antigen immobilised on AR2G sensor at 5 μg/mL, antibody 0.626-20 nM, 1:2 binding model.

B1: KC-001 항체 (인간 MUC1-C 항체 KC-001) (antibody, V domains shown)
VH: QVQLVESGGGLVQPGGSLRLSCAASGFTFSNYGMSWVRQAPGKGLEWVSSISNGGGSTSYADSVKGRFTISRDNSKNTLYLQMNSLRAEDTAVYYCAGWGIRGVTRPYYYYGMDVWGQGTTITVSS
VL: DIVMTQTPLSLSVTPGQPASISCKSSQSLLHSDRKTYLYWYLQKPGQSPQLLIYEASNRFSGVPDRFSGGGSGTDFTLKISRVEADDVGIYYCMQGLHPIT
notes: Human antibody from a naive scFv phage library; also called 항-MUC1 항체
Turning to B1, the affinity, expressed as Kd, was 6.49 nM.
